Experimental findings from PMC4980223 (Immunology and cell biology, 2016) are described below.

The series concerns the molecule itself. The experiment in a line: SEC. (Size exclusion chromatography separates by hydrodynamic size, large species first.)

B1: recombinant, soluble SRCR trimer (HIS6-SRCR, MARCO residues 400-520) (domain or fragment, human, UniProt Q9UEW3 400-520, looked up)
chain: GVKGSSGEQGVKGEKGERGENSVSVRIVGSSNRGRAEVYYSGTWGTICDDEWQNSDAIVFCRMLGYSKGRALYKVGAGTGQIWLDNVQCRGTESTLWSCTKNSWGHHDCSHEEDAGVECSV
One may read the stoichiometry N as the number of molecules, sites or subunits per partner or assembly. B1: the “stoichiometry N” value was 3.
